Reference: the supplement of paper PMC10065799, “High-throughput profiling of sequence recognition by tyrosine kinases and SH2 domains using bacterial peptide display” (eLife, 2023)

How the values were obtained:
FGFR1 = FGFR1 (UniProt P11362); experiment: phosphorylation enrichment, bacterial display (enrichment ratio); higher = better substrate or ligand; peptides without Tyr show the background
EPHB1 = EPHB1 (UniProt P54762); experiment: as above
AncSZ = experiment: as above
MERTK = MERTK (UniProt Q12866); experiment: as above
Fyn = Fyn (UniProt P06241); experiment: as above
Sequence of Fyn (P06241 whole entry, looked up): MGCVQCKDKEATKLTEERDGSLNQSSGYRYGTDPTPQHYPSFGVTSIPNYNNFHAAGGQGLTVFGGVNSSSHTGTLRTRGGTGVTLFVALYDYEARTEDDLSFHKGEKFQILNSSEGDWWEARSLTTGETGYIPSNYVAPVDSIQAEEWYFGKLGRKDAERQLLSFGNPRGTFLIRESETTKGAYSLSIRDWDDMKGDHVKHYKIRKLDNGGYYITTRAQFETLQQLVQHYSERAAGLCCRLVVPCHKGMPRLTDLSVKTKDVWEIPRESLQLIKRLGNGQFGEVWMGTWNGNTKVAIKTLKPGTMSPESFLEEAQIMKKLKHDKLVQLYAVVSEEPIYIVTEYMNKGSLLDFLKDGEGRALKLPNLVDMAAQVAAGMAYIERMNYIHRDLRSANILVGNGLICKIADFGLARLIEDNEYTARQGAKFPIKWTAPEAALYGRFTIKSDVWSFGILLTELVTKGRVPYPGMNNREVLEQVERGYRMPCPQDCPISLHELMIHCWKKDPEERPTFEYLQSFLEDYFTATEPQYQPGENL

Fes = Fes (UniProt P07332); experiment: as above
Sequence of Fes (P07332 whole entry, looked up): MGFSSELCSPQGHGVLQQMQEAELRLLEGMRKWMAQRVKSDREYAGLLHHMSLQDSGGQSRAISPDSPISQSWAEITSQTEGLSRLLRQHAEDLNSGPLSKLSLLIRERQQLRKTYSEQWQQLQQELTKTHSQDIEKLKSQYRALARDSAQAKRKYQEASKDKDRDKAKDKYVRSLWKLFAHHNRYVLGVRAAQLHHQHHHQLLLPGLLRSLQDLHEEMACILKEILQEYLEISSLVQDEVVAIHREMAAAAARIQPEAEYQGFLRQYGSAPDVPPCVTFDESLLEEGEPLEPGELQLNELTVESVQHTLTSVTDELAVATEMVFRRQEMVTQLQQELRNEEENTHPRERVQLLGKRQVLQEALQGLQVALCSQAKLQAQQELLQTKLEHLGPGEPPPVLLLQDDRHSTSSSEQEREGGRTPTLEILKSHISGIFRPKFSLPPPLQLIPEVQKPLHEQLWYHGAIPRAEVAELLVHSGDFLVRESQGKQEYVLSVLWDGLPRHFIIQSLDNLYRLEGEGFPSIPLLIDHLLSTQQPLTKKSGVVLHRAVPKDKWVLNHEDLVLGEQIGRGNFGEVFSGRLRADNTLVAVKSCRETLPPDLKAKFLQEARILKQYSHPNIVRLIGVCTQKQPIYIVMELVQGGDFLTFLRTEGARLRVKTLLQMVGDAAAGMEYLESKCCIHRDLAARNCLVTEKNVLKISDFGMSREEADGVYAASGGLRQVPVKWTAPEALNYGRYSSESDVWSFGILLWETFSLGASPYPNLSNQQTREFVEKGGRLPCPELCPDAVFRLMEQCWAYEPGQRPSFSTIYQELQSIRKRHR

c-Abl (mouse) = experiment: as above
Hck = Hck (UniProt P08631); experiment: as above
Sequence of Hck (P08631 whole entry, looked up): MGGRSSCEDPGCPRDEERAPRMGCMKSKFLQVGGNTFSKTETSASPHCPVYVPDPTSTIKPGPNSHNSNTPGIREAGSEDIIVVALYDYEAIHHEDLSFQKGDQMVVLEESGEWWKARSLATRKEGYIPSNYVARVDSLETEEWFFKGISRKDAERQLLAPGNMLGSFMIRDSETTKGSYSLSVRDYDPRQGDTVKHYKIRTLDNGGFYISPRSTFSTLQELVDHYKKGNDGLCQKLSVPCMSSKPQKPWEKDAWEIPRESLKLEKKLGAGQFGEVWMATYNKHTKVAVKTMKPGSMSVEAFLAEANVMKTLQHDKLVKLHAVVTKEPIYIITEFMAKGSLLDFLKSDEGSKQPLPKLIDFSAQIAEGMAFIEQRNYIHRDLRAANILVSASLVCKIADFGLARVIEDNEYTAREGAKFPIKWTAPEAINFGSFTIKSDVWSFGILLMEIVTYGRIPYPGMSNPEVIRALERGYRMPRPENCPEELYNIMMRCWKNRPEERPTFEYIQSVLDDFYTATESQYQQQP

Jak2 = Jak2 (UniProt O60674); experiment: as above
EPHB2 = EPHB2 (UniProt P29323); experiment: as above
Sequence of EPHB2 (P29323 whole entry, looked up): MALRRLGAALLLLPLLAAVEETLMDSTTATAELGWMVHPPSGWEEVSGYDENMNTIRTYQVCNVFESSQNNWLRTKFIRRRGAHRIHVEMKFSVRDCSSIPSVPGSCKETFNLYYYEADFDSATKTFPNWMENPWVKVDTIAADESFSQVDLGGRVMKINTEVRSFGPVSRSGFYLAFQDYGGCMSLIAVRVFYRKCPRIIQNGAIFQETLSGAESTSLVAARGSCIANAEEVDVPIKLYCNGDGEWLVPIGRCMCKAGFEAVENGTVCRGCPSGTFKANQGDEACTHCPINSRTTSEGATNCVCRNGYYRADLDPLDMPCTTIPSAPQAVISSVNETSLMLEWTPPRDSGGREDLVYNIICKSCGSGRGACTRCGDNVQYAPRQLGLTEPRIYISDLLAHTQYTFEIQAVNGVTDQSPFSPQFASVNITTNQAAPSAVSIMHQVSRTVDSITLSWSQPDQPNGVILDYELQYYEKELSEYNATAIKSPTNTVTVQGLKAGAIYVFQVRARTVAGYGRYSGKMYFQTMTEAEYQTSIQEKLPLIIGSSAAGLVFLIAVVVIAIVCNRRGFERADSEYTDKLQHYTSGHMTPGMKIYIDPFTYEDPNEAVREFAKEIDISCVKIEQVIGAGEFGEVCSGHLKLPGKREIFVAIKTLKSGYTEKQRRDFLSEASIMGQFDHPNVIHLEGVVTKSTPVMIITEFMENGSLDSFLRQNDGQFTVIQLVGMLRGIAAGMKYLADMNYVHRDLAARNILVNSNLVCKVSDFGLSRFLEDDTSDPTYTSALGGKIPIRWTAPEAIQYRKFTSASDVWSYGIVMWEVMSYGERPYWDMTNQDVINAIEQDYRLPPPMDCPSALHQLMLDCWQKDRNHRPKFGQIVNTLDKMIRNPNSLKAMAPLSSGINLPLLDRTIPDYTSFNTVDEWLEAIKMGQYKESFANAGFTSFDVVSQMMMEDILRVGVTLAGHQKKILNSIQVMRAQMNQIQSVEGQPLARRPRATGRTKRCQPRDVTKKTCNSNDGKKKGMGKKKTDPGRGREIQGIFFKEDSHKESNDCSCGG

Fer (mouse) = experiment: as above
c-Src = experiment: as above
FGFR3 = FGFR3 (UniProt P22607); experiment: as above
Sequence of FGFR3 (P22607 whole entry, looked up): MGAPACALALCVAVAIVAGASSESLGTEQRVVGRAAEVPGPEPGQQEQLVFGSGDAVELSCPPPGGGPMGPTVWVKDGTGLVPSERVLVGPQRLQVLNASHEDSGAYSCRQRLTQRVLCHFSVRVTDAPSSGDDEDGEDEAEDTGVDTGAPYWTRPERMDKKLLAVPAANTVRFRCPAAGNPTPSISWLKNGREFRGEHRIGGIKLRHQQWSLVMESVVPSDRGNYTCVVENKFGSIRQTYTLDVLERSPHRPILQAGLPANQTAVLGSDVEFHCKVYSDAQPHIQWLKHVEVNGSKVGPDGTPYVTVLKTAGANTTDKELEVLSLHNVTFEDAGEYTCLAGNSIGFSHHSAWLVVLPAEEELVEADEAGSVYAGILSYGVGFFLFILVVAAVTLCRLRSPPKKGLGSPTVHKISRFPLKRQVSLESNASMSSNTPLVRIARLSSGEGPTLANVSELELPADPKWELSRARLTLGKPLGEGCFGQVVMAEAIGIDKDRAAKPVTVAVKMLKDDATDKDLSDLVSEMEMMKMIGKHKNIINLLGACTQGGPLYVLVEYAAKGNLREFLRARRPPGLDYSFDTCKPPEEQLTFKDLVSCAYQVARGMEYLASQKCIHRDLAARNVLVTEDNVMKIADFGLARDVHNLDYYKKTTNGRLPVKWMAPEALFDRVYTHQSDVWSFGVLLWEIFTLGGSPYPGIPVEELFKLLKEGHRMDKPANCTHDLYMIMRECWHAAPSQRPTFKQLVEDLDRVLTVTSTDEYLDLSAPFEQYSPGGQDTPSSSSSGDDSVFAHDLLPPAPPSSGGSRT

c-Src SH2 = experiment: SH2 binding enrichment of the phosphorylated peptide, bacterial display (enrichment ratio); higher = better substrate or ligand; peptides without Tyr show the background
SHP2-C SH2 = experiment: as above
Grb2 SH2 = Grb2 SH2 (UniProt P62993); experiment: as above
Sequence of Grb2 SH2 (P62993 whole entry, looked up, the tested form may be a part): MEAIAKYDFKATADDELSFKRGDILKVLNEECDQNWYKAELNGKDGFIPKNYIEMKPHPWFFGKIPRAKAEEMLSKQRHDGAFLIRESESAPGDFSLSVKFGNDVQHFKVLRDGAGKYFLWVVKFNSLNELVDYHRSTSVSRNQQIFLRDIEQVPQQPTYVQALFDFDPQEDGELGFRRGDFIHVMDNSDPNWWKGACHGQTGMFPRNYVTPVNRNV
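For SH2 binding enrichment of the phosphorylated peptide, bacterial display in this document: peptide library displayed on the E. coli surface as eCPX fusions, selected cells deep-sequenced, score is each peptide's frequency after selection divided by its frequency in the input.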
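For phosphorylation enrichment, bacterial display in this document: 11-residue human phosphosite peptides and single-mutation variants displayed on the E. coli surface, counted by deep sequencing, each peptide's frequency after selection divided by its frequency in the unselected input library; frequency after pTyr selection over input frequency; kinase dosed for 20-30% of maximal phosphorylation in three min.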

Sequence of EPHB1 (P54762 whole entry, looked up): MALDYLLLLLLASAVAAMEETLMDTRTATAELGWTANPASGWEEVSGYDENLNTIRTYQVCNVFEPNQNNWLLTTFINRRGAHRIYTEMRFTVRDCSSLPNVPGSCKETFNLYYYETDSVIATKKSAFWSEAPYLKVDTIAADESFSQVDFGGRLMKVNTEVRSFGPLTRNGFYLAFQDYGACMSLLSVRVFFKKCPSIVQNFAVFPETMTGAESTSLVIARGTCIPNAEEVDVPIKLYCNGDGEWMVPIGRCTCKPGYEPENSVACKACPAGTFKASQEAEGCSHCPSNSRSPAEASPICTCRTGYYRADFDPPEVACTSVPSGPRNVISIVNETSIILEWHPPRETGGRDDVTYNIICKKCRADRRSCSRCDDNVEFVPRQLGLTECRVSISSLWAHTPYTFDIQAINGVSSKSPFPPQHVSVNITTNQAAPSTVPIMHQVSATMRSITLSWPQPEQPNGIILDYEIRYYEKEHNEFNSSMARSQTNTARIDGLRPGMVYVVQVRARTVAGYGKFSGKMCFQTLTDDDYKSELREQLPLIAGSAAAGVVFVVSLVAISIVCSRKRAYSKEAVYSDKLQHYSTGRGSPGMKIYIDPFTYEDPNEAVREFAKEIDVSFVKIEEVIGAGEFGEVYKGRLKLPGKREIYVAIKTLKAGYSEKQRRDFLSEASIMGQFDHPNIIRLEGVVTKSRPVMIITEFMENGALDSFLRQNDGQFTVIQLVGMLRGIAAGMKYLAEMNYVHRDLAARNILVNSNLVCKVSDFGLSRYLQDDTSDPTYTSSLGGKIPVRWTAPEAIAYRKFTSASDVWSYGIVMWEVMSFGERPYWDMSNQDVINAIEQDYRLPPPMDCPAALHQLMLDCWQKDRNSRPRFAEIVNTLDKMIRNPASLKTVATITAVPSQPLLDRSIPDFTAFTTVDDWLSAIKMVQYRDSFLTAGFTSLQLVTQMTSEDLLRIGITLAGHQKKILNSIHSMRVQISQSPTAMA

Sequence	phosphorylation enrichment (FGFR1)	phosphorylation enrichment (EPHB1)	phosphorylation enrichment (AncSZ)	phosphorylation enrichment (MERTK)	phosphorylation enrichment (Fyn)	phosphorylation enrichment (Fes)	phosphorylation enrichment (c-Abl (mouse))	phosphorylation enrichment (Hck)	phosphorylation enrichment (Jak2)	phosphorylation enrichment (EPHB2)	phosphorylation enrichment (Fer (mouse))	phosphorylation enrichment (c-Src)	phosphorylation enrichment (FGFR3)	SH2 binding enrichment (c-Src SH2)	SH2 binding enrichment (SHP2-C SH2)	SH2 binding enrichment (Grb2 SH2)
NACGLYYKLHN [GATA2_Y376]	1.43	1.13	1.5	2.29	0.504	1.3	0.922	1.21	2.27	0.774	0.56	1.54	1.48	0.716	0.547	0.739
VTVLDYDKIGK [SYT1_Y365]	0.505	0.45	0.621	0.48	0.343	0.828	0.482	0.648	0.501	0.541	0.404	0.391	0.515	2.88	0.777	0.774
NFATLYLKIYH [PDE6B_Y219]	0.464	0.564	0.989	0.392	0.42	1.28	0.827	0.42	1.27	0.574	0.492	0.403	0.709	0.539	0.859	0.887
QMVDMYASSYM [AVPR2_Y124_G122D]	0.579	0.558	1.22	0.842	0.876	1.43	0.891	1.58	0.905	0.571	0.631	1.29	0.815	1.33	0.602	0.742
KPPPSYESEEE [BRD4_Y599_T598S]	0.584	0.611	1.42	0.543	0.639	1.29	0.957	0.601	1.32	0.761	0.557	0.591	0.71	0.762	0.517	1.04
ADNQRYAFMPL [TMEM87B_Y460_N456D]	0.733	1.07	0.728	6.67	0.503	0.812	0.781	0.628	0.673	0.663	0.502	0.452	0.641	2.15	0.649	1.02
CLAKMYYSAVD [CP_Y539]	0.812	1.02	1.14	2.33	0.572	1.18	0.674	0.708	0.956	0.701	1.18	0.722	0.936	3.43	0.902	0.942
RKIMGYSIRTI [IDS_Y490_I485R]	0.664	0.676	0.699	0.535	0.591	0.796	0.759	0.624	0.62	0.556	0.619	0.666	0.524	0.654	0.718	0.944
KSPDSYQKILP [ATM_Y1415_L1420P]	0.517	0.387	0.544	0.414	0.427	0.584	0.431	0.36	0.519	0.321	0.531	0.389	0.429	1.45	0.688	0.947
VEQIHYIGQNE [HMOX2_Y140_R137Q]	0.483	0.445	0.665	0.408	0.462	0.663	0.423	0.461	0.547	0.396	0.424	0.452	0.612	0.465	0.582	0.834
KPVDTYYDSTR [DYNC2H1_Y2230_M2227V]	0.826	0.648	0.808	0.397	0.508	0.809	0.633	0.808	0.756	0.496	0.427	0.56	0.668	0.923	0.64	0.848
PLDGEYFTLHI [TP53_Y327_Q331H]	5.77	0.808	2.49	0.752	2.35	1.68	1.93	1.51	4.23	0.97	0.816	2.97	4.7	0.365	0.594	0.852
GPIFRYDSGGA [CYP11B1_Y81_L83S]	0.505	0.487	0.82	0.42	0.478	0.802	0.576	0.43	0.69	0.418	0.402	0.475	0.554	0.543	0.732	0.969
SVTGTYSPALN [TP53_Y126_C124G]	0.394	0.419	0.661	0.444	0.584	0.769	0.717	0.621	0.835	0.424	0.434	0.549	0.593	0.415	0.747	0.852
GCKKRYDKDKP [THAP1_Y14_N12K]	0.506	0.449	0.833	0.6	0.396	0.702	0.621	0.452	0.529	0.534	0.445	0.531	0.703	0.337	0.386	0.755
GADDSYYTVRS [ZAP70_Y492_A495V]	5.51	0.68	1.43	0.676	1.44	0.882	0.79	2.39	1.16	0.548	0.644	1.65	3.76	0.873	0.697	1.62
NSRFTYKLEVK [USH2A_Y3747_YF]	0.432	0.649	1.22	0.467	0.38	1.39	0.853	0.475	1.25	0.545	0.599	0.382	0.761	0.331	0.561	0.757

Sequence	phosphorylation enrichment (FGFR1)	phosphorylation enrichment (EPHB1)	phosphorylation enrichment (AncSZ)	phosphorylation enrichment (MERTK)	phosphorylation enrichment (Fyn)	phosphorylation enrichment (Fes)	phosphorylation enrichment (c-Abl (mouse))	phosphorylation enrichment (Hck)	phosphorylation enrichment (Jak2)	phosphorylation enrichment (EPHB2)	phosphorylation enrichment (Fer (mouse))	phosphorylation enrichment (c-Src)	phosphorylation enrichment (FGFR3)	SH2 binding enrichment (c-Src SH2)	SH2 binding enrichment (SHP2-C SH2)	SH2 binding enrichment (Grb2 SH2)
DPASAYADEVK [ETNPPL_Y189_S185P]	0.473	0.628	1.06	0.435	0.492	1.2	0.794	0.557	1.06	0.469	0.495	0.416	0.724	0.671	0.462	0.941
MRALTYCDLHK [KCNH2_Y827_V822M]	0.509	0.73	0.853	0.365	0.407	1.09	0.626	0.507	0.771	0.523	0.507	0.37	0.536	0.626	0.708	0.703
GILDVYIFLGP [GAA_Y340]	0.864	0.787	1.27	0.701	0.505	1.44	0.866	0.676	1.21	0.792	0.381	0.7	1.02	0.44	0.79	0.768
AEKPKYQISNI [TJP1_Y1602_N1605S]	0.358	0.286	0.896	0.333	0.372	0.544	0.54	0.41	0.401	0.376	0.377	0.36	0.409	0.503	0.516	0.739
FLKDVYVDSKD [NDUFAF4_Y69]	0.488	0.459	1.11	0.471	0.48	0.983	0.66	0.707	0.855	0.512	0.557	0.471	0.731	0.413	0.749	0.848
AVNDFYAAKKT [CCDC178_Y422]	0.648	0.464	0.629	0.449	0.508	0.703	0.61	0.5	0.548	0.372	0.381	0.429	0.551	0.457	0.87	1.07
GISDEYHVIRR [GCDH_Y398_H403R]	1.46	0.529	0.983	0.457	0.517	0.792	0.607	1.5	0.719	0.541	0.471	0.621	0.881	0.835	0.889	0.833
AFLQTYSHEVS [PCDHGA5_Y753]	0.442	0.584	0.845	0.585	0.602	0.971	0.518	0.551	0.957	0.64	0.531	0.812	0.683	0.57	0.873	1.01
DGQVNYEEFVQ [CALM1_Y139]	0.608	1.62	1.33	0.487	0.505	1.42	0.957	0.626	1.2	1.28	0.659	0.576	0.841	0.399	0.493	0.784
LVSCTYQLATG [FGFR2_Y608_R612T]	0.559	0.717	1.41	0.546	0.596	1.3	0.83	0.631	1.05	0.668	0.615	0.952	0.764	0.456	0.739	0.729
THPFLYLSLEI [MLH1_Y293]	0.622	0.628	1.13	0.385	0.383	1.52	0.817	0.516	1.4	0.648	0.478	0.363	0.827	0.682	0.74	1.19
QEGPEYWDGET [HLA-A_Y83_Q86G]	0.839	0.739	1.73	0.627	0.712	1.71	0.964	0.712	1.67	0.786	0.788	0.554	1.25	0.476	0.662	0.957
GVIRHYVVCST [BTK_Y334]	0.555	0.68	1.13	0.447	0.535	1.25	0.87	0.536	1.12	0.712	0.566	0.444	0.813	0.495	0.529	0.819
LSIQTYSALNF [DES_Y423_P419S]	0.991	3.92	1.58	6.97	4.8	2.14	1.46	6.9	1.76	4.34	2.61	5.21	1.09	1.34	1.43	0.824
DISEPYEVFRI [IRF8_Y107_K108E_YF]	0.661	0.665	2.21	0.572	1.91	1.15	1.09	1.81	1.09	0.559	12.3	4.48	0.725	0.663	0.916	1.03
CTIIHYNFMCN [TP53_Y234_T231I_YF]	0.524	0.718	1.12	0.434	0.482	1.54	0.825	0.56	1.5	0.553	0.686	0.445	0.993	1.23	1.73	1.71
